In publication PMC3218035, “Nuclear Exportin Receptor CAS Regulates the NPI-1–Mediated Nuclear Import of HIV-1 Vpr” (PLoS ONE, 2011):

T1: Qip1 (importin α3), full-length, GST cleaved (human, UniProt O00629 1-521)
T1 construct: also called Qip1_(full); full-length Qip1; source: E. coli BL21 CodonPlus (DE3)-RIL, purified (Glutathione Sepharose 4FF), GST cleaved with PreScission protease
T1 sequence (looked up): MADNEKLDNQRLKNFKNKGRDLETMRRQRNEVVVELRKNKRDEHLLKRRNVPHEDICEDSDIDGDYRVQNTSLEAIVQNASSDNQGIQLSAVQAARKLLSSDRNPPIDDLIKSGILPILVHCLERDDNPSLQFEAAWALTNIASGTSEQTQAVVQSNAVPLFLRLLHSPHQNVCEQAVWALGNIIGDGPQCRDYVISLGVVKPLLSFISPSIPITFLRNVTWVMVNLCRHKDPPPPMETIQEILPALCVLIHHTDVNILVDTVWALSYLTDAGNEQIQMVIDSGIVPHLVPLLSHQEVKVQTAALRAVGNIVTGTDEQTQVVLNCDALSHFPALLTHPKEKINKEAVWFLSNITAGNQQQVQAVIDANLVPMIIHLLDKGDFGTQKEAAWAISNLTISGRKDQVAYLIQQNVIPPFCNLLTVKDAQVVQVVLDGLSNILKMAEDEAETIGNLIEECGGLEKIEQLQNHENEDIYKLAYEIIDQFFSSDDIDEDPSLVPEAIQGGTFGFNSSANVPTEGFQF

T2: Qip1 392–537 C-terminal peptide mutant, GST cleaved (human, UniProt O00629 392-521)
T2 construct: also called Qip1 394–521 (methods); source: E. coli BL21 CodonPlus (DE3)-RIL, purified (Glutathione Sepharose 4FF), GST cleaved with PreScission protease
T2 sequence (looked up): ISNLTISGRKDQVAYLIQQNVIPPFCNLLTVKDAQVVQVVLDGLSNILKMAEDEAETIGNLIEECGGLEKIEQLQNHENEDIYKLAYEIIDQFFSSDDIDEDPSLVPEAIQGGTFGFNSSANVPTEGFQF


Legend:
[1] = target: T3, GST-tagged NPI-1 (importin α5), full-length (human, UniProt P52294 1-538); assay: pull-down; details: both partners purified
T3 construct: also called GST-NPI-1; SPR1; source: E. coli BL21 CodonPlus (DE3)-RIL, purified (Glutathione Sepharose 4FF)
T3 sequence (P52294 whole entry): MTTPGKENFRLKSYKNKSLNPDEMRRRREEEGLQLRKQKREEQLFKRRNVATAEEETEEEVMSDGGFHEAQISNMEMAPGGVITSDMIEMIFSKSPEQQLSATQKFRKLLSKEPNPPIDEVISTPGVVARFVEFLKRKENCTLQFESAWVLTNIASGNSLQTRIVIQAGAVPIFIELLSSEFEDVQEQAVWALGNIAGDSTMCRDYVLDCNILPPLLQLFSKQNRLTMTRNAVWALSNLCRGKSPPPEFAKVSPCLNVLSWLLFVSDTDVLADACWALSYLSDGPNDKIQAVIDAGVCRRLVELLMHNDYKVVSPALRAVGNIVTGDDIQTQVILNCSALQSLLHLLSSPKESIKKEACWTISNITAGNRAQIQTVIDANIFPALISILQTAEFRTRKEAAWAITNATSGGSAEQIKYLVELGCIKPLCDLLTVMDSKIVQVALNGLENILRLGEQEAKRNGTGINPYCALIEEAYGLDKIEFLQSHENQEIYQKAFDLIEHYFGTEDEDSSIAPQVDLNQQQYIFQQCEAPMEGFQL

[2] = target: T1, Qip1 (importin α3), full-length, GST …; assay: SPR; details: both partners purified
[3] = target: T4, NPI-1 (importin α5), full-length, GST cleaved (human, UniProt P52294 1-538); assay: SPR; details: both partners purified
T4 construct: also called NPI-1_(full); full-length NPI-1; source: E. coli BL21 CodonPlus (DE3)-RIL, purified (Glutathione Sepharose 4FF), GST cleaved with PreScission protease
T4 sequence (P52294 whole entry): as above

[4] = target: T5, Rch1 404–529 C-terminal peptide mutant, GST cleaved (human, UniProt P52292 404-529); assay: SPR; details: both partners purified
T5 construct: also called Rch1 C-terminal peptide; source: E. coli BL21 CodonPlus (DE3)-RIL, purified (Glutathione Sepharose 4FF), GST cleaved with PreScission protease

[5] = target: T2, Qip1 392–537 C-terminal peptide mutant, …; assay: SPR; details: both partners purified
[6] = target: T6, NPI-1 404–541 C-terminal peptide mutant, GST cleaved (human, UniProt P52294 404-538); assay: SPR; details: both partners purified
T6 construct: also called NPI-1 406–538 (methods); source: E. coli BL21 CodonPlus (DE3)-RIL, purified (Glutathione Sepharose 4FF), GST cleaved with PreScission protease
T6 sequence (P52294 404-538, change not shown): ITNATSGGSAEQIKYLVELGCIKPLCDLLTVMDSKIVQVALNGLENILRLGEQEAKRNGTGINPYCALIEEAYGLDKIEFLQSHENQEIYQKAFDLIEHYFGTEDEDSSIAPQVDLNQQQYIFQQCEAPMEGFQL

[7] = target: Rch1 (importin α1), full-length, GST cleaved (human), P52292; assay: SPR; details: remark: other sources report otherwise

Binder	mRFP-Vpr bound to GST-NPI-1 with CAS and Q69LRanGTP, fold of the sample without CAS [1]	Kd [2]	Kd [3]	Kd [4]	Kd [5]	Kd [6]	Kd [7]
cellular apoptosis susceptibility (CAS) protein, recombinant (natural protein, UniProt P55060 1-971, looked up, also called CSE1L; source: E. coli BL21 CodonPlus (DE3)-RIL, purified (Glutathione Sepharose 4FF)) MELSDANLQTLTEYLKKTLDPDPAIRRPAEKFLESVEGNQNYPLLLLTLLEKSQDNVIKVCASVTFKNYIKRNWRIVEDEPNKICEADRVAIKANIVHLMLSSPEQIQKQLSDAISIIGREDFPQKWPDLLTEMVNRFQSGDFHVINGVLRTAHSLFKRYRHEFKSNELWTEIKLVLDAFALPLTNLFKATIELCSTHANDASALRILFSSLILISKLFYSLNFQDLPEFFEDNMETWMNNFHTLLTLDNKLLQTDDEEEAGLLELLKSQICDNAALYAQKYDEEFQRYLPRFVTAIWNLLVTTGQEVKYDLLVSNAIQFLASVCERPHYKNLFEDQNTLTSICEKVIVPNMEFRAADEEAFEDNSEEYIRRDLEGSDIDTRRRAACDLVRGLCKFFEGPVTGIFSGYVNSMLQEYAKNPSVNWKHKDAAIYLVTSLASKAQTQKHGITQANELVNLTEFFVNHILPDLKSANVNEFPVLKADGIKYIMIFRNQVPKEHLLVSIPLLINHLQAESIVVHTYAAHALERLFTMRGPNNATLFTAAEIAPFVEILLTNLFKALTLPGSSENEYIMKAIMRSFSLLQEAIIPYIPTLITQLTQKLLAVSKNPSKPHFNHYMFEAICLSIRITCKANPAAVVNFEEALFLVFTEILQNDVQEFIPYVFQVMSLLLETHKNDIPSSYMALFPHLLQPVLWERTGNIPALVRLLQAFLERGSNTIASAAADKIPGLLGVFQKLIASKANDHQGFYLLNSIIEHMPPESVDQYRKQIFILLFQRLQNSKTTKFIKSFLVFINLYCIKYGALALQEIFDGIQPKMFGMVLEKIIIPEIQKVSGNVEKKICAVGITKLLTECPPMMDTEYTKLWTPLLQSLIGLFELPEDDTIPDEEHFIDIEDTPGYQTAFSQLAFAGKKEHDPVGQMVNNPKIHLAQSLHKLSTACPGRVPSMVSTSLNAEALQYLQGYLQAASVTLL	0.2 fold						
GST-tagged-Vpr (natural protein, also called GST-Vpr; source: E. coli, purified (GSH system, His-Trap column), dialyzed against transport buffer) MEQAPEDQGPQREPYNEWTLELLEELKSEAVRHFPRIWLHNLGQHIYETYGDTWAGVEAIIRILQQLLFIHFRIGCRHSRIGVTRQRRARNGASRS		6.8 µM	7.4 µM	4.3 µM	6.5 µM	6.7 µM	8.9 µM
